Results reported in patent US20250163167A1 (SYNTHEKINE, published 2025).

T1: human IL-10 receptor (hIL-10R alpha and beta chains) on HEK-Blue IL-10 reporter cells (human, UniProt Q13651 22-578; Q08334 20-325)
T1 sequence 1: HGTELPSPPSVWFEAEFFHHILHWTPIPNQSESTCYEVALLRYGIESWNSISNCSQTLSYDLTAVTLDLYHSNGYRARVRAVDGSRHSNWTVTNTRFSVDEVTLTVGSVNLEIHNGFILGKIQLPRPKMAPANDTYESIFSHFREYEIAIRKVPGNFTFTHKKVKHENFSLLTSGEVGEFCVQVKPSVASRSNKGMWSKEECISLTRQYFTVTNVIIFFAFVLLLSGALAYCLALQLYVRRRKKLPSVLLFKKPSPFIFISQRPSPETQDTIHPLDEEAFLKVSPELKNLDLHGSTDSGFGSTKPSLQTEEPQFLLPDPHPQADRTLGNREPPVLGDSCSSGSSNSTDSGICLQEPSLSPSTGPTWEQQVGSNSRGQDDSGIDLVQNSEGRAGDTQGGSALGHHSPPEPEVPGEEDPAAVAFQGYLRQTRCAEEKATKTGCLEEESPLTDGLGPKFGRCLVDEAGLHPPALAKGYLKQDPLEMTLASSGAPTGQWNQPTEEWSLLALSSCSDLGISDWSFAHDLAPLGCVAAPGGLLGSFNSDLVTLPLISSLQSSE
T1 sequence 2: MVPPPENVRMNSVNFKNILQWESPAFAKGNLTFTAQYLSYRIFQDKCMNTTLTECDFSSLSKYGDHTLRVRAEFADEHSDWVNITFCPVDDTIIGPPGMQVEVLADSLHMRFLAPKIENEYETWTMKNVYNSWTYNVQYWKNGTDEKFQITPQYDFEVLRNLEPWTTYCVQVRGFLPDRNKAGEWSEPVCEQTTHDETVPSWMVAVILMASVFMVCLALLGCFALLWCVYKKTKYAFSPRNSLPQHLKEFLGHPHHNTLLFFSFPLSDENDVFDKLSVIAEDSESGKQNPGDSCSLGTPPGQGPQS

B1: IL10R binding molecule of SEQ ID NO: 308 (bispecific antibody)
chain: QVQLQESGGGSVQAGGSLRLSCAASGYTYSSGCMGWFRQAPGKEREAVAAINSDGSTSYADSVKGRFTISKDNAKNTLYLQMNSLKPEDTAMYYCAAEPYCSGGYPRWSVAEFGYWGQGTQVTVSSGGGSQVQLQESGGGSVQAGGSLRLSCAVSGYAYSTYCMGWFRQAPGKEREGVAAIDSGGSTSYADSVKGRFTISKDNAKNTLYLRMNSLKPEDTAMYYCAAVPPPPDGGSCLFLGPEIKVSKADFRYWGQGTQVTVSSASHHHHHH
B2: IL10R binding molecule of SEQ ID NO: 260 (bispecific antibody)
chain: QVQLQESGGGSVQAGGSLRLSCAASRYLYSIDYMAWFRQSPGKEREPVAVIYTASGATFYPDSVKGRFTISQDNAKMTVYLQMNSLKSEDTAMYYCAAVRKTDSYLFDAQSFTYWGQGTQVTVSSGGGSQVQLQESGGGSVEAGGSLRLSCAASGYTHSSYCMGWFRQAPGKEREGVAAIDVDGSTTYADSVKGRFTISKDNAKNTLYLQMNSLKPEDTGMYYCAAEFADCSSNYFLPPGAVRYWGQGTQVTVSSASHHHHHH
B3: IL10R binding molecule of SEQ ID NO: 305 (bispecific antibody)
chain: QVQLQESGGGSVQAGGSLRLSCAASGYTYSSGCMGWFRQAPGKEREAVAAINSDGSTSYADSVKGRFTISKDNAKNTLYLQMNSLKPEDTAMYYCAAEPYCSGGYPRWSVAEFGYWGQGTQVTVSSGGGSQVQLQESGGGSVQAGGSLRLSCAASRYLYSIDYMAWFRQSPGKEREPVAVIYTASGATFYPDSVKGRFTISQDNAKMTVYLQMNSLKSEDTAMYYCAAVRKTDSYLFDAQSFTYWGQGTQVTVSSASHHHHHH
B4: IL10R binding molecule of SEQ ID NO: 259 (bispecific antibody)
chain: QVQLQESGGGSVQAGGSLRLSCAASRYLYSIDYMAWFRQSPGKEREPVAVIYTASGATFYPDSVKGRFTISQDNAKMTVYLQMNSLKSEDTAMYYCAAVRKTDSYLFDAQSFTYWGQGTQVTVSSGGGSQVQLQESGGGSVQAGGSLRLSCTVSRYTASVNYMGWFRQAPGKEREGVATIFTGAGTTYYANSVKGRFTISRDNAKNTAYLQMNSLKPEDTAIYYCAVDFRGGLLYRPAYEYTYRGQGTQVTVSSASHHHHHH
B5: IL10R binding molecule of SEQ ID NO: 309 (bispecific antibody)
chain: QVQLQESGGGSVQAGGSLRLSCAASGYTYSSGCMGWFRQAPGKEREAVAAINSDGSTSYADSVKGRFTISKDNAKNTLYLQMNSLKPEDTAMYYCAAEPYCSGGYPRWSVAEFGYWGQGTQVTVSSGGGSQVQLQESGGGSVQAGGSLRLSCTVSGYTYSSNCMGWFRQAPGKEREGVATIYTGGGNTYYADSVKGRFTISQDNAKNTVYLQMNNLKPEDTAMYYCAAEPLSRVYGGSCPTPTFDYWGQGTQVTVSSASHHHHHH
B6: IL10R binding molecule of SEQ ID NO: 307 (bispecific antibody)
chain: QVQLQESGGGSVQAGGSLRLSCAASGYTYSSGCMGWFRQAPGKEREAVAAINSDGSTSYADSVKGRFTISKDNAKNTLYLQMNSLKPEDTAMYYCAAEPYCSGGYPRWSVAEFGYWGQGTQVTVSSGGGSQVQLQESGGGSVQAGGSLRLSCAASGYTYSMYCMGWFRQAPGKEREGVAQINSDGSTSYADSVKGRFTISKDNAKNTLYLQMNSLKPEDTAMYYCAADSRVYGGSWYERLCGPYTYEYNYWGQGTQVTVSSASHHHHHH
B7: IL10R binding molecule of SEQ ID NO: 306 (bispecific antibody)
chain: QVQLQESGGGSVQAGGSLRLSCAASGYTYSSGCMGWFRQAPGKEREAVAAINSDGSTSYADSVKGRFTISKDNAKNTLYLQMNSLKPEDTAMYYCAAEPYCSGGYPRWSVAEFGYWGQGTQVTVSSGGGSQVQLQESGGGSVQAGGSLRLSCAASRFTYSSYCMGWFRQAPGKEREGVASIDSDGSTSYTDSVKGRFTISKDNAKNTLYLQMNSLKPEDTAMYYCALDLMSTVVPGFCGFLLSAGMDYWGKGTQVTVSSASHHHHHH
B8: IL10R binding molecule of SEQ ID NO: 304 (bispecific antibody)
chain: QVQLQESGGGSVQAGGSLRLSCAASGYSNCSYDMTWYRQAPGKEREFVSAIHSDGSTRYADSVKGRFFISQDNAKNTVYLQMNSLKPEDTAMYYCKTDPLHCRAHGGSWYSVRANYWGQGTQVTVSSGGGSQVQLQESGGGSVQTGGSLRLSCAASGYTYLRGCMGWFRQAPGKEREGVAVMDVVGDRRSYIDSVKGRFTISRDNAANSVYLQMDNLKPEDTAMYYCTAGPNCVGWRSGLDYWGQGTQVTVSSASHHHHHH
B9: IL10R binding molecule of SEQ ID NO: 315 (bispecific antibody)
chain: QVQLQESGGGSVQAGGSLRLSCAASGYTYSSYCMGWFRQAPGKEREGVAHIDSDGSTSYADSVKGRFTISKDNAKNTLYLQMNSLKPEDTAMYYCAADPIPGPGYCDGGPNKYWGQGTQVTVSSGGGSQVQLQESGGGSVQAGGSLRLSCAVSGYAYSTYCMGWFRQAPGKEREGVAAIDSGGSTSYADSVKGRFTISKDNAKNTLYLRMNSLKPEDTAMYYCAAVPPPPDGGSCLFLGPEIKVSKADFRYWGQGTQVTVSSASHHHHHH
B10: IL10R binding molecule of SEQ ID NO: 311 (bispecific antibody)
chain: QVQLQESGGGSVQAGGSLRLSCAASGYTYSSGCMGWFRQAPGKEREAVAAINSDGSTSYADSVKGRFTISKDNAKNTLYLQMNSLKPEDTAMYYCAAEPYCSGGYPRWSVAEFGYWGQGTQVTVSSGGGSQVQLQESGGGSVQAGGSLRLSCAASGYSNCSYDMTWYRQAPGKEREFVSAIHSDGSTRYADSVKGRFFISQDNAKNTVYLQMNSLKPEDTAMYYCKTDPLHCRAHGGSWYSVRANYWGQGTQVTVSSASHHHHHH
B11: IL10R binding molecule of SEQ ID NO: 310 (bispecific antibody)
chain: QVQLQESGGGSVQAGGSLRLSCAASGYTYSSGCMGWFRQAPGKEREAVAAINSDGSTSYADSVKGRFTISKDNAKNTLYLQMNSLKPEDTAMYYCAAEPYCSGGYPRWSVAEFGYWGQGTQVTVSSGGGSQVQLQESGGGSVQAGGSLRLSCGASGYTYSSYCMGWFRQVPGKEREGVAVIDSDGSTSYADSVKGRFTISKDNGKNTLYLQMNSLKPEDTAMYYCAADLGHYRPPCGVLYLGMDYWGKGTQVTVSSASHHHHHH
B12: IL10R binding molecule of SEQ ID NO: 314 (bispecific antibody)
chain: QVQLQESGGGSVQAGGSLRLSCAASGYTYSSYCMGWFRQAPGKEREGVAHIDSDGSTSYADSVKGRFTISKDNAKNTLYLQMNSLKPEDTAMYYCAADPIPGPGYCDGGPNKYWGQGTQVTVSSGGGSQVQLQESGGGSVQAGGSLRLSCAASGYTYSMYCMGWFRQAPGKEREGVAQINSDGSTSYADSVKGRFTISKDNAKNTLYLQMNSLKPEDTAMYYCAADSRVYGGSWYERLCGPYTYEYNYWGQGTQVTVSSASHHHHHH
B13: IL10R binding molecule of SEQ ID NO: 312 (bispecific antibody)
chain: QVQLQESGGGSVQAGGSLRLSCAASGYTYSSYCMGWFRQAPGKEREGVAHIDSDGSTSYADSVKGRFTISKDNAKNTLYLQMNSLKPEDTAMYYCAADPIPGPGYCDGGPNKYWGQGTQVTVSSGGGSQVQLQESGGGSVQAGGSLRLSCAASRYLYSIDYMAWFRQSPGKEREPVAVIYTASGATFYPDSVKGRFTISQDNAKMTVYLQMNSLKSEDTAMYYCAAVRKTDSYLFDAQSFTYWGQGTQVTVSSASHHHHHH
B14: IL10R binding molecule of SEQ ID NO: 313 (bispecific antibody)
chain: QVQLQESGGGSVQAGGSLRLSCAASGYTYSSYCMGWFRQAPGKEREGVAHIDSDGSTSYADSVKGRFTISKDNAKNTLYLQMNSLKPEDTAMYYCAADPIPGPGYCDGGPNKYWGQGTQVTVSSGGGSQVQLQESGGGSVQAGGSLRLSCAASRFTYSSYCMGWFRQAPGKEREGVASIDSDGSTSYTDSVKGRFTISKDNAKNTLYLQMNSLKPEDTAMYYCALDLMSTVVPGFCGFLLSAGMDYWGKGTQVTVSSASHHHHHH
B15: wild-type human IL-10 (Recombinant Animal-Free Human IL-10, Shenandoah Biotechnology) (ligand)
chain: SPGQGTQSENSCTHFPGNLPNMLRDLRDAFSRVKTFFQMKDQLDNLLLKESLLEDFKGYLGCQALSEMIQFYLEEVMPQAENQDPDIKAHVNSLGENLKTLRLRLRRCHRFLPCENKSKAVEQVKNAFNKLQEKGIYKAMSEFDIFINYIEAYMTMKIRN

Biological target: T1, human IL-10 receptor (hIL-10R alpha and …)
Test: cell-based or functional assay

Abs 630 (25 nM) [Abs 630] | Abs 630 (100 nM) [Abs 630] | Binder
0.48 | 0.39 | B1
0.49 | 0.39 | B2
0.59 | 0.35 | B3
1.85 | 1.13 | B4
0.45 | 0.37 | B5
0.44 | 0.34 | B6
0.69 | 0.49 | B7
1.96 | 2.06 | B8
0.51 | 0.41 | B9
0.48 | 0.4 | B10
0.51 | 0.44 | B11
0.49 | 0.42 | B12
0.48 | 0.39 | B13
0.47 | 0.39 | B14
2.08 | 2.04 | B15
